The text below walks through data of patent publication US20040018957A1, “Crystal structure of a Ras-P13K complex” (priority 2000, published 2004).

The target in one data set is T1, PI3K (Homo sapiens, UniProt P48736).
T1 construct: a construct containing residues 144-1102 of the human PI3Kγ with a C-terminal His6 tag; His6 (C); made in house; host or cells: Sf9 insect cells (baculovirus, pVL1393)
Description: Steady state and kinetic measurements of mant-ATP and mant-ADP binding. As to conditions: FIG. 2C. As to the method:
Equilibrium binding of mant-ATP to PI3K was measured in a SLM 8000 S spectrofluorimeter with λex=280 nm and […]. This allowed monitoring of energy transfer from tryptophan in the PI3K to mant-ATP. Mant-ATP was titrated into a 1 μM solution of PI3K in running buffer. Each data point represents the average of data collected for 30 seconds with a 1 second integration time. For data collected in the presence of Ras, the solution also contained 6 μM H-ras.GMPPNP. The data were fitted to the binding equation with Kaleidagraph.
All kinetic data were collected in a Hi-Tech Na61 instrument set up in the single push mode with λex=280 nm and emission monitored with 399 nm cutoff filters. A solution of PI3K was mixed a solution of mant-ATP such that the final PI3K concentration was 1 μM and the ATP concentrations were 2.5, 5. 7.5, 10, 12.5, and 25 μM. The displacement experiment was carried out by mixing 1 μM PI3K and 2 μM mant-ATP with 50 or 200 μM ATP. Curve fits were carried out with the Hi-Tech software and Kaleidagraph. Equilibrium and kinetic data for mant-ADP were collected by the same methods.

Data set [1] concerns the target T2, N-Ras.mant-GMPPNP (Homo sapiens, UniProt P01111).
T2 construct: fluorescence anisotropy of full length, unmodified N-Ras.mant-GMPPNP
Description: Fluorescence anisotropy titration of PI3Kγ 144-1102 into N-Ras.mant-GMPPNP. Conditions: fluorescence anisotropy, 20° C., 1 μM N-Ras.mant-GMPPNP. In kind it is binding. As to the method: (§1) Mant-nucleotides were synthesised as described previously (Jameson and Eccleston, 1997). N-Ras and H-Ras mutants were loaded with mant-GMPPNP as in (Moore et al., 1993), gel filtered into running buffer (20 mM Tris pH 7.5, 2 mM MgCl2, 1 mM DTT), and frozen at −80° C. The concentration of Ras.mant-GMPPNP was determined by measuring the absorbance of the mant group at […] with ε=5700 M^−1 cm^−1 (Hiratsuka, 1983). For binding assays, the 144-1102 human PI3Kγ was titrated into a 1 μM solution of fill length, unmodified N-Ras.mant-GMPPNP. Data were collected with SLM 8000 S and ISS PC1 spectrofluorimeters, set up in the T-format and L-format, respectively, with prism polarizers. All measurements were taken at 20° C. with a λex of 366 nm. Both emission PMTs were fitted with 399 nm cutoff filters. Five measurements of each data point were obtained and averaged. Data were fitted to the binding equation.
Target sequence in this assay (P01111 whole entry): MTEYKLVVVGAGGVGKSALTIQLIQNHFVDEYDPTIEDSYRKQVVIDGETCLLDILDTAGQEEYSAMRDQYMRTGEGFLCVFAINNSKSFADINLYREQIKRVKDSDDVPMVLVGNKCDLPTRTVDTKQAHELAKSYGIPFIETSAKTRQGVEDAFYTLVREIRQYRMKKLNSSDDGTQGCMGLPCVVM
(In general: Fluorescence polarisation rises when a labelled molecule tumbles more slowly, as on binding a larger partner.)

A further data set deals with N-Ras.GDP (Homo sapiens, UniProt P01111). Description: Binding of PI3Kγ constructs to N-Ras.GDP.
In data set [2] the target is T2, N-Ras.mant-GMPPNP. Description: Stopped flow anisotropy, association and dissociation kinetics. In kind it is binding. Conditions: 20° C. As to the method: A Hi-Tech MX61 instrument (Hi-Tech, Salisbury) set up in the T-format with prism polarizers was used to collect data at 20° C. The mant group was excited at 366 nm and emission monitored through 399 nm cutoff filters. The association kinetics were followed by rapid mixing of PI3Kγ with 1 μM N-Ras.mant-GMPPNP under pseudo first-order conditions (PI3Kγ in large excess). Specifically, equal proportions of N-Ras and PI3Kγ were mixed to a final Ras concentration of 1 μM and final PI3Kγ concentrations of 5 and 10 μM. The dissociation rate was measured by mixing a solution of 1 μM N-Ras.mant-GMPPNP and 5 μM PI3K with 9 μM N-Ras.GMPPNP. Attempts to determine association rates at higher PI3K concentrations were limited by solubility of the protein. Data were fitted to single exponential curves within the Hi-Tech software.
Target sequence in this assay (P01111 whole entry): as above
Target sequence in this assay (P48736 144-1102 partner limits assumed): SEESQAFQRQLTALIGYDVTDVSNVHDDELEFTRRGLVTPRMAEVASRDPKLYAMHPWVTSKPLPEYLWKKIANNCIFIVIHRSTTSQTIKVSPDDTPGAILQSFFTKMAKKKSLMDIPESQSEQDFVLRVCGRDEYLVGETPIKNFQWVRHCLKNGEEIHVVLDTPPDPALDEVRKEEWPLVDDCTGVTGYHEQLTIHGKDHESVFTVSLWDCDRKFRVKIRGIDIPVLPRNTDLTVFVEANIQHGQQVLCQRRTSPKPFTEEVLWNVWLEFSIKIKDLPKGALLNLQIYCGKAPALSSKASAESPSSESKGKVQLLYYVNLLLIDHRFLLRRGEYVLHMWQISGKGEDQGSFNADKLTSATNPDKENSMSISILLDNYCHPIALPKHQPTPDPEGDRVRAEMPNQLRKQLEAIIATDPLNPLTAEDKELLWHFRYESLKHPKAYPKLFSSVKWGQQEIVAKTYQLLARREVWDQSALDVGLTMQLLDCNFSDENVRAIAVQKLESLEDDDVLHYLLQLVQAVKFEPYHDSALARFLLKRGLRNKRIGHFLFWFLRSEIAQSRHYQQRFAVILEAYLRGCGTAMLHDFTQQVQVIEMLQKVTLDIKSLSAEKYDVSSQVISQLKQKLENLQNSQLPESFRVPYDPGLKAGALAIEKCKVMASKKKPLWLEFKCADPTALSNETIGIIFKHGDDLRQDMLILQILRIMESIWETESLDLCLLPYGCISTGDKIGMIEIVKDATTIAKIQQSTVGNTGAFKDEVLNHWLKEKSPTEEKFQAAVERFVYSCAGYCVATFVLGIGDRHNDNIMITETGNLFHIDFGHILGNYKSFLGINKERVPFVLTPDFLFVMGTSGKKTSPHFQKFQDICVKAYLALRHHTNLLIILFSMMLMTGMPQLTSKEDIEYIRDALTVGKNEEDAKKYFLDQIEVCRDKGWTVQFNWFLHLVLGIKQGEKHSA

The target in a further data set is wild type H-Ras (Homo sapiens, UniProt P01112). Description: Fluorescence anisotropy titration of PI3Kγ with H-Ras. In kind it is binding. As to the method: as §1
Chain of wild type H-Ras (P01112 whole entry): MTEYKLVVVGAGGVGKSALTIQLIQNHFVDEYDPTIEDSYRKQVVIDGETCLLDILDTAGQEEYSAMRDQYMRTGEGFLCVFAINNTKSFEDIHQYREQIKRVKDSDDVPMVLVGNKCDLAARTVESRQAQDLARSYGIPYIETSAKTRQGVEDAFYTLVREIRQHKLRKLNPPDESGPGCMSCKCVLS
Chain of wild type H-Ras (P48736 144-1102 partner limits assumed): as the sequence (P48736 144-1102 partner limits assumed) above

Chain of N-Ras.GDP (P01111 whole entry): as the sequence (P01111 whole entry) above
T1 sequence (P48736 144-1102): as the sequence (P48736 144-1102 partner limits assumed) above

In the case of mant-ADP, the “nucleotide release from PI3Kγ” value on PI3K is reported as “slower than mant-ATP release”.

Usually Kd stands for the constant that tells how readily two partners part at equilibrium. Low values mean a tighter complex, high ones a looser complex. Turning to “wild type PI3Kγ: residues 144-1102 of human PI3Kγ with a C-terminal His6 tag”, the Kd came out at 2.8 ± 0.4 µM in the data set with N-Ras.mant-GMPPNP [1] and 3.2 ± 0.5 µM with wild type H-Ras. Moreover, the “binding to N-Ras.GDP” value with N-Ras.GDP is listed as “Neither the wild-type protein, the pseudo wild-type (V327A, see methods), nor the V223K mutant exhibit detectable binding”. The “observed rate constant of the Ras.PI3K complex (single-exponential fit)” value with N-Ras.mant-GMPPNP [2] is 18 s⁻¹.
